This assay relates to HEK293 cells. As to the kind of experiment: Haptotactic cell migration assay in Transwell chambers, HEK293 cells. In kind it is cell-based, human. How it is done: (C) Inhibition of haptotactic cell migration in the absence or presence of the indicated mAbs to integrins at a final concentration of 10 μg/ml. FN at 10 μg/ml or BSA for control were coated onto the backside of Transwell chambers. Cells were seeded into the top chamber and allowed to transmigrate for 16 hr at 37° C. The antibody was present during the assay time. Each determination was done in quadruplicate and transmigrated cells were stained from the back of the filter. The dye was eluted from the filter and measured at 595 nm. The amount of dye is proportional to the number of transmigrated cells. Values for the migration on BSA were below 0.25 O.D. units for each cell type.
The haptotactic cell migration assay on fibronectin, laminin or BSA was performed in Transwell chambers (Costar, 6.5 mm diameter, 5 um pore size) and was described in detail elsewhere (Mechtersheimer et al., supra). Transmigrated cells were quantified by staining of the transwell membranes with cristalviolet solution as described (Mechtersheimer at al., supra). The eluted dye was measured at 595 nm in an ELISA reader.

The results in this text go back to patent US8003599B2, “Inhibitors of L1 and ADAM10 for the treatment of carcinomas” (Deutsches Krebsforschungszentrum, priority 2004, dated 2011).

B1: soluble L1: affinity purified soluble L1 from ascites fluid of ovarian carcinoma patients, 150 kDa and 200 kDa (protein)
chain: IQIPEEYEGHHVMEPPVITEQSPRRLVVFPTDDISLKCEASGKPEVQFRWTRDGVHFKPKEELGVTVYQSPHSGSFTITGNNSNFAQRFQGIYRCFASNKLGTAMSHEIRLMAEGAPKWPKETVKPVEVEEGESVVLPCNPPPSAEPLRIYWMNSKILHIKQDERVTMGQNGNLYFANVLTSDNHSDYICHAHFPGTRTIIQKEPIDLRVKATNSMIDRKPRLLFPTNSSSHLVALQGQPLVLECIAEGFPTPTIKWLRPSGPMPADRVTYQNHNKTLQLLKVGEEDDGEYRCLAENSLGSARHAYYVTVEAAPYWLHKPQSHLYGPGETARLDCQVQGRPQPEVTWRINGIPVEELAKDQKYRIQRGALILSNVQPSDTMVTQCEARNRHGLLLANAYIYVVQLPAKILTADNQTYMAVQGSTAYLLCKAFGAPVPSVQWLDEDGTTVLQDERFFPYANGTLGIRDLQANDTGRYFCLAANDQNNVTIMANLKVKDATQITQGPRSTIEKKGSRVTFTCQASFDPSLQPSITWRGDGRDLQELGDSDKYFIEDGRLVIHSLDYSDQGNYSCVASTELDVVESRAQLLVVGSPGPVPRLVLSDLHLLTQSQVRVSWSPAEDHNAPIEKYDIEFEDKEMAPEKWYSLGKVPGNQTSTTLKLSPYVHYTFRVTAINKYGPGEPSPVSETVVTPEAAPEKNPVDVKGEGNETTNMVITWKPLRWMDWNAPQVQYRVQWRPQGTRGPWQEQIVSDPFLVVSNTSTFVPYEIKVQAVNSQGKGPEPQVTIGYSGEDYPQAIPELEGIEILNSSAVLVKWRPVDLAQVKGHLRGYNVTYWREGSQRKHSKRHIHKDHVVVPANTTSVILSGLRPYSSYHLEVQAFNGRGSGPASEFTFSTPEGVPGHPEALHLECQSNTSLLLRWQPPLSHNGVLTGYVLSYHPLDEGGKGQLSFNLRDPELRTHNLTDLSPHLRYRFQLQATTKEGPGEAIVREGGTMALSGISDFGNISATAGENYSVVSWVPKEGQCNFRFHILFKALGEEKGGASLSPQYVSYNQSSYTQWDLQPDTDYEIHLFKERMFRHQMAVKTNGTGRVRLPPAGFATE
B1: the “induction of cell migration by ascites derived soluble L1” value (fibronectin as substrate (FIG. 4B)) is reported as “potent dose-dependent inducer of cell migration”.

B2: soluble L1 released from HEK293-hL1mutSH3 cells: supernatant collected from HEK293-hL1mutSH3 cells, concentrated tenfold (protein, UniProt P32004 20-1120, looked up)
extracellular domain: IQIPEEYEGHHVMEPPVITEQSPRRLVVFPTDDISLKCEASGKPEVQFRWTRDGVHFKPKEELGVTVYQSPHSGSFTITGNNSNFAQRFQGIYRCFASNKLGTAMSHEIRLMAEGAPKWPKETVKPVEVEEGESVVLPCNPPPSAEPLRIYWMNSKILHIKQDERVTMGQNGNLYFANVLTSDNHSDYICHAHFPGTRTIIQKEPIDLRVKATNSMIDRKPRLLFPTNSSSHLVALQGQPLVLECIAEGFPTPTIKWLRPSGPMPADRVTYQNHNKTLQLLKVGEEDDGEYRCLAENSLGSARHAYYVTVEAAPYWLHKPQSHLYGPGETARLDCQVQGRPQPEVTWRINGIPVEELAKDQKYRIQRGALILSNVQPSDTMVTQCEARNRHGLLLANAYIYVVQLPAKILTADNQTYMAVQGSTAYLLCKAFGAPVPSVQWLDEDGTTVLQDERFFPYANGTLGIRDLQANDTGRYFCLAANDQNNVTIMANLKVKDATQITQGPRSTIEKKGSRVTFTCQASFDPSLQPSITWRGDGRDLQELGDSDKYFIEDGRLVIHSLDYSDQGNYSCVASTELDVVESRAQLLVVGSPGPVPRLVLSDLHLLTQSQVRVSWSPAEDHNAPIEKYDIEFEDKEMAPEKWYSLGKVPGNQTSTTLKLSPYVHYTFRVTAINKYGPGEPSPVSETVVTPEAAPEKNPVDVKGEGNETTNMVITWKPLRWMDWNAPQVQYRVQWRPQGTRGPWQEQIVSDPFLVVSNTSTFVPYEIKVQAVNSQGKGPEPQVTIGYSGEDYPQAIPELEGIEILNSSAVLVKWRPVDLAQVKGHLRGYNVTYWREGSQRKHSKRHIHKDHVVVPANTTSVILSGLRPYSSYHLEVQAFNGRGSGPASEFTFSTPEGVPGHPEALHLECQSNTSLLLRWQPPLSHNGVLTGYVLSYHPLDEGGKGQLSFNLRDPELRTHNLTDLSPHLRYRFQLQATTKEGPGEAIVREGGTMALSGISDFGNISATAGENYSVVSWVPKEGQCNFRFHILFKALGEEKGGASLSPQYVSYNQSSYTQWDLQPDTDYEIHLFKERMFRHQMAVKTNGTGRVRLPPAGFATE
modifications: extracellular domain from SH3-motif mutant L1
notes: supernatant collected from HEK293-hL1mutSH3 cells, concentrated tenfold
B2: the “induction of HEK293 migration by L1mutSH3-HEK293 supernatant” value (conditioned medium concentrated tenfold) is “able to induce migration”.
